# Experimental data as given in patent publication US20140234336A1.
# Target: HA of H3N2 influenza virus Wyomin/3/03.rg (influenza A virus H3N2 Wyomin/3/03.rg)
# Experiment: cell-based or functional assay
substance,measurement,value
CT149 antibody,MN titer,5 µg/mL
